Reference: the nanobody polyreactivity screen of Harvey et al. (2022)

Experiment: yeast display, Sf9 membrane polyspecificity reagent, FACS + sequencing; frameworks hold sequencing errors
Method in brief: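 Nanobodies came from a synthetic yeast display library in Saccharomyces cerevisiae BJ5465, induced with galactose for 36–48 hours and stained for 1 hour at 4 °C with 10% biotinylated, detergent-solubilized Sf9 membrane reagent. Cells were enriched on streptavidin microbeads and then FACS-sorted, with low and high (top ~1%) gates set on anti-HA fluorescence for expression and streptavidin fluorescence for reagent binding. Each polyreactivity label reflects the gate a clone came from. Genes were amplified by colony PCR, sequenced by MiSeq 2 × 250 and filtered by CDR length.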

| Sequence | polyreactivity (PSR sort gate) |
| --- | --- |
| QVQLVESGGGLVQAGGSLRLSCAASGSTIPSYAMGWYRPAPGKETELVASITYSDGTTRYADSVKGRFTISRDNAKNTVYLQMNSLIPEDTAVYYCNAVYYREGMDYWGQGTQVTVSS | low polyreactivity |
| QVQLVESGGGLVQAGGSLRLSCAASGSTIRLYAMGWYRQAPGKESELVAAISVSGGSTHYADSVKGRFTISRDNAKNTVYLQMNSLKPEYTAVYYFNAAGNPVSRYHYDYWGQGTQVTVSS | high polyreactivity |
| QVQLVESGGGLVQAGGSLRLSCAASGSTIRNYAMGWYRQAPGKERELVAAISSGGRTYYADSVKGRFTISRDNAKNTVYLQMNSLKPEDTAVYYCKGRSYSRMYYWGQGTQVTVSS | high polyreactivity |
| QVQLVESGGGLVQAGGSLRLSCAASGSTIRVYGMGWYRQAPGKERELVAAIRWIGGRTYYADSVKARFTISRDNAKNTVYLQMNSLKPEDTAVYYCNARAGPVRFDYWGQGTQVTVAS | low polyreactivity |
| QVQLVESGGGLVQAGGSLRLSCAASGSTIRYNAMGWYRQAPGKERELVAAISRSGGSTYYADSVKGRFTISRDNAKNTVYLQRTSLKTEDTAVYYCAADRGARGDYWGQGTQVTVSS | high polyreactivity |
| QVQLVESGGGLVQAGGSLRLSCAASGSTIRYNAMGWYRQAPGKERELVAAISRTGGTTYYADSVKGRFTISRDNAKNTVYLQMNSLKPEDTAVYYCNAVQAPYLRYDYWGQGTQVTVSS | high polyreactivity |
| QVQLVESGGGLVQAGGSLRLSCAASGSTISFLIMGWYRQAPGKERELVAAISRSGGRTYYADSVKGRFTISRDNAKNTVYFQMNSLKPEDTAVYYCAADYVSVDRIRYGYWGQGTQVTVSS | high polyreactivity |
| QVQLVESGGGLVQAGGSLRLSCAASGSTITRYAMGWYRQAPGKERELVAVISRSGGSTYYADSVKGRFTISRDNAKNTVYLQMNSLKPEDTAVYYCAAKYYGGRRSPYSYGYWGQGTQVTVSS | high polyreactivity |
| QVQLVESGGGLVQAGGSLRLSCAASGSTIVRYAMGWYRQAPGKERELVAAISGGGSTSYADSVKGRFTISRDNAKNTVYLQMNSLKPEDTAVYYCAKAGYRSEFEYWGQGTQVTVSS | low polyreactivity |
| QVQLVESGGGLVQAGGSLRLSCAASGSTIWSNAMGWYIQAPGKERELVAVISGGTSTNYADSVKGRFTISRDNAKNTVYLQMNSLKPEDTAVYYCAADWGSYLILINDTEMDYWGQGTQVTVSS | low polyreactivity |
| QVQLVESGGGLVQAGGSLRLSCAASGSTIYRYAMGGYRQAPGKERELVAAITWSGGSTYYADSVKGRFTISRDNAKNTVYLQMNSLKPADTAVYYCNAVARYYYKDQTIIHSPREDYWGQGTQVTVSS | low polyreactivity |
| QVQLVESGGGLVQAGGSLRLSCAASGSTIYTYAMGWSRQAPGKERELVAAINRSGGTTYYADSVKGRFTISRDNAKNTVYLQMNSLKPEDTADYYCARRRYGYDYWGQGTQVTVSS | high polyreactivity |
| QVQLVESGGGLVQAGGSLRLSCAASGSTIYTYVMGWYIQAPGKERELVAAISWSGSSTYYADSVKGRCTISRDNAKNTVYLQINSLKPEDTAVYYCNAKYRRGWWGVEYGYWGQGTQVTVSS | low polyreactivity |
| QVQLVESGGGLVQAGGSLRLSCAASGSTIYVNAMGWYIQAPGKERELVAAIRSSAGNTTYADSVKGRFTISRDNAKNTVYLQMNSLKPEVTAVYYCAADSRPYLRDYWGQGTQVTVSS | low polyreactivity |
| QVQLVESGGGLVQAGGSLRLSCAASGSTLAKKAMGWYRQEPGKERELVAAISKNGGTTYYADSVKGRFTISRDNAKNTVYLQMNSLKPEDTAVYYCAVSIWGWFASGFDYWGQGTQVTVSS | high polyreactivity |
| QVQLVESGGGLVQAGGSLRLSCAASGSTLALYTMGWYRQAPGKERELVAAISKNGGRTYYADSVKGRFTISRDNAKNTVYLKMNSLKPEDTAVYYCAAASGSYRGYDYWGQGTQVTVSS | high polyreactivity |
| QVQLVESGGGLVQAGGSLRLSCAASGSTLAPYAMGGYRQAPGKERELVASINWGGTTTYYADSVKGRFTISRDNAKNTVYLQMNSLIPEDTAVYYCAALGLRWGRSGYYYEYYYWGQGTQVTVSS | high polyreactivity |
